Substitutions are numbered along the chain they refer to. Blank lines part the entries; values can stand above or below the binder they belong to.
Experiments:
mfTSLP1-m-mFc = target: T1, mfTSLP1-m-mFc (cynomolgus monkey (Macaca …)); assay: ELISA on coated mfTSLP1-m-mFc (1 μg/mL), HRP anti-human IgG
T1 construct: also called 食蟹猴TSLP
T1 chain: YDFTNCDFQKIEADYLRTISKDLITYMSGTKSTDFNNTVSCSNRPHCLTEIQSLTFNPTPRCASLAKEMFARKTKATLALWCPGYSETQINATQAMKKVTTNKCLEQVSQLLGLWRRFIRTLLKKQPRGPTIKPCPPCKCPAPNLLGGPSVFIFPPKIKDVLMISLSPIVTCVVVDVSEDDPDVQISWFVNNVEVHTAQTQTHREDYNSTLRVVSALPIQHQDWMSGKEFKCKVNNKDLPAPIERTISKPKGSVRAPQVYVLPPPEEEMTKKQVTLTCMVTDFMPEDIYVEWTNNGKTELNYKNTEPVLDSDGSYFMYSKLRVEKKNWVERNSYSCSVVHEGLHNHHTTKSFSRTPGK

mTSLP-mFc = target: T2, mTSLP-mFc (mouse (mus musculus)); assay: ELISA on coated mTSLP-mFc (1 μg/mL), HRP anti-human IgG
T2 construct: also called 小鼠TSLP
T2 chain: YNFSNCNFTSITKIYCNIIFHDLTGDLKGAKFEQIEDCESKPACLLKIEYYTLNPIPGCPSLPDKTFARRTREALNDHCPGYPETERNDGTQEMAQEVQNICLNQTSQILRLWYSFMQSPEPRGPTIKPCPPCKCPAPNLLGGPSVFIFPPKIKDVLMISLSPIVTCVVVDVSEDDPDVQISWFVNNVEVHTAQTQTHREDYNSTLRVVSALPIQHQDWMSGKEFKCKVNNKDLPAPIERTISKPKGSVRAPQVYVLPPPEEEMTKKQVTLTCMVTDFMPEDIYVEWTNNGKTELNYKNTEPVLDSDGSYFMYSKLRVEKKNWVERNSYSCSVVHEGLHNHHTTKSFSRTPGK

hTSLP1-m-mFc = target: T3, hTSLP1-m-mFc (human (homo sapiens)); mouse (mus …, limits assumed); assay: ELISA on coated hTSLP1-m-mFc (1 μg/mL), HRP anti-human IgG
T3 construct: also called 人TSLP
T3 chain: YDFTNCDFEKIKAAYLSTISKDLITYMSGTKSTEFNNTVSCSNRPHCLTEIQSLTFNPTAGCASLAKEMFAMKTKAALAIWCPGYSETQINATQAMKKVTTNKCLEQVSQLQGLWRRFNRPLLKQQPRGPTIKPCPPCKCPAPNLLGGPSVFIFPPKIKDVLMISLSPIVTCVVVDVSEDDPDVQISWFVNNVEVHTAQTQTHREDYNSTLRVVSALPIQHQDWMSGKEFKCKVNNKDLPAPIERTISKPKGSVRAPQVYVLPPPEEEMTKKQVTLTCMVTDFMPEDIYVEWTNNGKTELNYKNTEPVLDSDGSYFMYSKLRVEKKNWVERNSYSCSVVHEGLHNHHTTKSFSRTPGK

mfTSLP = target: T4, mfTSLP (cynomolgus monkey (Macaca fascicularis)); assay: SPR (Biacore X100) as in Example 3.1, antibody captured, mfTSLP as analyte
T4 construct: also called 猴TSLP; 食蟹猴TSLP
T4 chain: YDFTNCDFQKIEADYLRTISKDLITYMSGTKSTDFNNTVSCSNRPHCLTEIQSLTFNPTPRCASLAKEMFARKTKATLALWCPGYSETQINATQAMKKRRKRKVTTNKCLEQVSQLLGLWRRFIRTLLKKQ

hTSLP1-m-His [1] = target: T5, hTSLP1-m-His (human (homo sapiens), UniProt Q969D9 29-159); assay: competition ELISA on coated hTSLP1-m-his; competitor Tezepelumab-mIgG2a; HRP anti-human IgG
T5 construct: Long version of the human TSLP extracellular region, furin site deleted, His tag at the C-terminus, made in HEK293; also called hTSLP-m-his; not shown: C-terminal His tag

hTSLP1-m-His [2] = target: T5, hTSLP1-m-His; assay: SPR (Biacore X100) as in Example 3.1, antibody captured, hTSLP as analyte
hTSLP1-m-His [3] = target: T5, hTSLP1-m-His; assay: SPR (Biacore X100), antibody captured by anti-human IgG (Fc) on CM5, hTSLP1-m-his as analyte, 25 C, 1:1 fit

B1: H1A10+L3E8-M1 (antibody, human IgG4, V domains shown)
VH: QVQLVQSGAEVKKPGASVKVSCKASGYAFSNYWMNWVRQAPGQGLEWMGQIFPGDSDTDYDQKFQGRVTMTRDTSTSTVYMELSSLRSEDTAVYYCARAGYYRGYYAMDYWGQGTTVTVSS
VL: EIVMTQSPATLSVSPGERATLSCSVSSSISSSNLHWYQQKPGQAPRPWIYGTSNLASGIPARFSGSGSGTEFTLTISSLQSEDFAVYYCQQWSSYPLTFGQGTKLEIK
notes: also called L3E8人源化突变体; 人源化抗TSLP单克隆抗体
binding result (mfTSLP1-m-mFc): binds
binding result (mTSLP-mFc): no binding
binding result (hTSLP1-m-mFc): binds
Kd (mfTSLP): 2.66 nM

B2: H1A10+L3E8-M1-IgG1m3 (antibody, V domains shown)
VH: B1 VH
VL: B1 VL
notes: IgG1m3 version; also called L3E8人源化突变体(IgG1m3版本)
binding result (hTSLP1-m-His [1]): binds

B3: H1A10+L3E8-M4-IgG1m3 (antibody, V domains shown)
VH: B1 VH
VL: B1 VL with L79M, Q80E, S81A
notes: as for B2
binding result (hTSLP1-m-His [1]): binds

B4: H1A10+L3E8-M2-IgG1m3 (antibody, V domains shown)
VH: B1 VH
VL: B1 VL with R46K
notes: as for B2
binding result (hTSLP1-m-His [1]): binds

B5: H1A10+L3E8-M3-IgG1m3 (antibody, V domains shown)
VH: B1 VH
VL: B1 VL with L21I, S22T
notes: as for B2
binding result (hTSLP1-m-His [1]): binds

B10: Tezepelumab (antibody, V domains shown)
VH: QMQLVESGGGVVQPGRSLRLSCAASGFTFRTYGMHWVRQAPGKGLEWVAVIWYDGSNKHYADSVKGRFTITRDNSKNTLNLQMNSLRAEDTAVYYCARAPQWELVHEAFDIWGQGTMVTVSS
VL: SYVLTQPPSVSVAPGQTARITCGGNNLGSKSVHWYQQKPGQAPVLVVYDDSDRPSWIPERFSGSNSGNTATLTISRGEAGDEADYYCQVWDSSSDHVVFGGGTKLTVL
notes: also called AMG 157; MEDI9929
Kd (mfTSLP): 0.00816 nM

B11: S2B1-IgG4 (antibody, V domains shown)
VH: EVKLQQSGAELVRPGSSVKISCKASGYAFSNYWMNWVKQRPGQGLEWIGQIFPGDGDTDYNGKFKGKATLTADKSSSTAYMQLSSLTSEDSAVYFCARAGYYRGYYAMDYWGQGTSVTVSA
VL: EIVLTQSPALMAASPGEKVTITCSVSSSISSSNLHWYQQKSETSPKPWIYGTSNLASGVPVRFSGSGSGTSYSLTISSMEAEDAATYYCQQWSSYPLTFGAGTKLEIK
Kd (hTSLP1-m-His [2]): 0.012 nM
Kd (hTSLP1-m-His [3]): 9.2 pM

Next, values leading:

binding result (mfTSLP1-m-mFc): binds
binding result (mTSLP-mFc): no binding
binding result (hTSLP1-m-mFc): binds
Kd (mfTSLP): 2.59 nM
B6: H1A10+L3E8-M2 (antibody, IgG4, V domains shown)
VH: B1 VH
VL: B1 VL with R46K
notes: also called L3E8人源化突变体

binding result (mfTSLP1-m-mFc): binds
binding result (mTSLP-mFc): no binding
binding result (hTSLP1-m-mFc): binds
Kd (mfTSLP): 2.63 nM
B7: H1A10+L3E8-M4 (antibody, IgG4, V domains shown)
VH: B1 VH
VL: B1 VL with L79M, Q80E, S81A
notes: also called L3E8人源化突变体

binding result (mfTSLP1-m-mFc): binds
binding result (mTSLP-mFc): no binding
binding result (hTSLP1-m-mFc): binds
Kd (mfTSLP): 2.37 nM
B8: H1A10+L3E8-M3 (antibody, IgG4, V domains shown)
VH: B1 VH
VL: B1 VL with L21I, S22T
notes: also called L3E8人源化突变体

binding result (mfTSLP1-m-mFc): binds
binding result (mTSLP-mFc): no binding
binding result (hTSLP1-m-mFc): binds
B9: H1A10+L3E8 (antibody, V domains shown)
VH: B1 VH
VL: B1 VL with L21I, S22T, R46K, T73S, L79V, Q80E, S81A, F84A

— patent CN111171150A (BEIJING ZHIREN MEIBO BIOTECHNOLOGY CO LTD, dated 2020)
